From the supplement of paper PMC5998384 come the findings set out here.

For data set [1], the system named is HeLa Kyoto. The experiment in a line: thermal stability score vs G1/S (z-score of summed log2 fold changes over temperatures); higher = more thermally stable than in G1/S.
The subject of data set [2] is HeLa Kyoto. The experiment in a line: melting temperature (median over replicates), in situ; higher = more thermally stable.
[3] abbreviates: cell cycle stage: early G1 (4.5 h after nocodazole release).
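Throughout, for melting temperature (median over replicates), in situ: HeLa Kyoto cells synchronized by double thymidine or nocodazole block, proteins quantified by TMT10plex mass spectrometry, three independent biological replicates.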
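Throughout, for thermal stability score vs G1/S (z-score of summed log2 fold changes over temperatures): synchronized HeLa Kyoto cells, proteins quantified by TMT10plex mass spectrometry, three biological replicates, mitosis taken 0.5 h after nocodazole release, G1/S directly after double thymidine block.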

With “MAAACGPGAAGYCLLLGLHLFLLTAGPALGWNDPDRMLLRDVKALTLHYDRYTTSRRLDPIPQLKCVGGTAGCDSYTPKVIQCQNKGWDGYDVQWECKTDLDIAYKFGKTVVSCEGYESSEDQYVLRGSCGLEYNLDYTELGLQKLKESGKQHGFASFSDYYYKWSSADSCNMSGLITIVVLLGIAFVVYKLFLSDGQYSPPPYSEYPPFSHRYQRFTNSAGPPPPGFKSEFTGPQNTGHGATSGFGSAFTGQQGYENSGPGFWTGLGTGGILGYLFGSNRAATPFSDSWYYPSYPPSYPGTWNRAYSPLHGGSGSYSVCSNSDTKTRTASGYGGTRRR [SARAF]”, the thermal stability score is -0.125 in the data set with HeLa Kyoto [1] (setting [3]) and 0.434 with HeLa Kyoto [1] (cell cycle stage: mitosis). In addition, the melting temperature with HeLa Kyoto [2] (cell cycle stage: G1/S) was 52 °C; in the data set with HeLa Kyoto [2] (cell cycle stage: mitosis), 53.3 °C.
Take “MPSPQLLVLFGSQTGTAQDVSERLGREARRRRLGCRVQALDSYPVVNLINEPLVIFVCATTGQGDPPDNMKNFWRFIFRKNLPSTALCQMDFAVLGLGDSSYAKFNFVAKKLHRRLLQLGGSALLPVCLGDDQHELGPDAAVDPWLRDLWDRVLGLYPPPPGLTEIPPGVPLPSKFTLLFLQEAPSTGSEGQRVAHPGSQEPPSESKPFLAPMISNQRVTGPSHFQDVRLIEFDILGSGISFAAGDVVLIQPSNSAAHVQRFCQVLGLDPDQLFMLQPREPDVSSPTRLPQPCSMRHLVSHYLDIASVPRRSFFELLACLSLHELEREKLLEFSSAQGQEELFEYCNRPRRTILEVLCDFPHTAAAIPPDYLLDLIPVIRPRAFSIASSLLTHPSRLQILVAVVQFQTRLKEPRRGLCSSWLASLDPGQGPVRVPLWVRPGSLAFPETPDTPVIMVGPGTGVAPFRAAIQERVAQGQTGNFLFFGCRWRDQDFYWEAEWQELEKRDCLTLIPAFSREQEQKVYVQHRLRELGSLVWELLDRQGAYFYLAGNAKSMPADVSEALMSIFQEEGGLCSPDAAAYLARLQQTRRFQTETWA [NDOR1]”: the thermal stability score in the data set on HeLa Kyoto [1] (setting [3]) was -0.788; in the data set with HeLa Kyoto [1] (cell cycle stage: mitosis), -0.432. The melting temperature with HeLa Kyoto [2] (cell cycle stage: G1/S) was 52.6 °C.
Consider “MISLTDTQKIGMGLTGFGVFFLFFGMILFFDKALLAIGNVLFVAGLAFVIGLERTFRFFFQKHKMKATGFFLGGVFVVLIGWPLIGMIFEIYGFFLLFRGFFPVVVGFIRRVPVLGSLLNLPGIRSFVDKVGESNNMV [GOLT1B]”, for which the thermal stability score in the data set with HeLa Kyoto [1] (setting [3]) is -3.12; in the data set on HeLa Kyoto [1] (cell cycle stage: mitosis) it was -4.7. The melting temperature in the data set with HeLa Kyoto [2] (cell cycle stage: G1/S) came to 59 °C; in the data set with HeLa Kyoto [2] (cell cycle stage: mitosis), 54.6 °C.
On the same counts, the results for “MEHFDASLSTYFKALLGPRDTRVKGWFLLDNYIPTFICSVIYLLIVWLGPKYMRNKQPFSCRGILVVYNLGLTLLSLYMFCELVTGVWEGKYNFFCQGTRTAGESDMKIIRVLWWYYFSKLIEFMDTFFFILRKNNHQITVLHVYHHASMLNIWWFVMNWVPCGHSYFGATLNSFIHVLMYSYYGLSSVPSMRPYLWWKKYITQGQLLQFVLTIIQTSCGVIWPCTFPLGWLYFQIGYMISLIALFTNFYIQTYNKKGASRRKDHLKDHQNGSMAAVNGHTNSFSPLENNVKPRKLRKD [ELOVL5]” are -0.682, -0.967, 53.3 °C and 53.7 °C.
For “MLTTLLPILLLSGWAFCSQDASDGLQRLHMLQISYFRDPYHVWYQGNASLGGHLTHVLEGPDTNTTIIQLQPLQEPESWARTQSGLQSYLLQFHGLVRLVHQERTLAFPLTIRCFLGCELPPEGSRAHVFFEVAVNGSSFVSFRPERALWQADTQVTSGVVTFTLQQLNAYNRTRYELREFLEDTCVQYVQKHISAENTKGSQTSRSYTSLVLGVLVGSFIIAGVAVGIFLCTGGRRC [PROCR]”, the results for the thermal stability score in the data set with HeLa Kyoto [1] (setting [3]) and in the data set with HeLa Kyoto [1] (cell cycle stage: mitosis) were 1.63 and 0.816, respectively. In addition, the melting temperature in the data set with HeLa Kyoto [2] (cell cycle stage: G1/S) stood at 59.1 °C; in the data set with HeLa Kyoto [2] (cell cycle stage: mitosis) it was 57.1 °C.
Consider “MKSVIYHALSQKEANDSDVQPSGAQRAEAFVRAFLKRSTPRMSPQAREDQLQRKAVVLEYFTRHKRKEKKKKAKGLSARQRRELRLFDIKPEQQRYSLFLPLHELWKQYIRDLCSGLKPDTQPQMIQAKLLKADLHGAIISVTKSKCPSYVGITGILLQETKHIFKIITKEDRLKVIPKLNCVFTVETDGFISYIYGSKFQLRSSERSAKKFKAKGTIDL [POP4]”, for which the thermal stability score in the data set on HeLa Kyoto [1] (setting [3]) is -1.07; in the data set on HeLa Kyoto [1] (cell cycle stage: mitosis) it was -2.15. Also, the melting temperature with HeLa Kyoto [2] (cell cycle stage: G1/S) is 52.4 °C.
